Results as given in patent CN113521276A.

Target: 人IFNAR1 on cells (HEK Blue IFNα/β cells, Daudi cells, human whole blood) (human) (UniProt P17181)
Test: cell-based or functional assay

Sequence of 人IFNAR1 on cells (HEK Blue IFNα/β cells, Daudi cells, human whole blood) (human) (P17181 28-557): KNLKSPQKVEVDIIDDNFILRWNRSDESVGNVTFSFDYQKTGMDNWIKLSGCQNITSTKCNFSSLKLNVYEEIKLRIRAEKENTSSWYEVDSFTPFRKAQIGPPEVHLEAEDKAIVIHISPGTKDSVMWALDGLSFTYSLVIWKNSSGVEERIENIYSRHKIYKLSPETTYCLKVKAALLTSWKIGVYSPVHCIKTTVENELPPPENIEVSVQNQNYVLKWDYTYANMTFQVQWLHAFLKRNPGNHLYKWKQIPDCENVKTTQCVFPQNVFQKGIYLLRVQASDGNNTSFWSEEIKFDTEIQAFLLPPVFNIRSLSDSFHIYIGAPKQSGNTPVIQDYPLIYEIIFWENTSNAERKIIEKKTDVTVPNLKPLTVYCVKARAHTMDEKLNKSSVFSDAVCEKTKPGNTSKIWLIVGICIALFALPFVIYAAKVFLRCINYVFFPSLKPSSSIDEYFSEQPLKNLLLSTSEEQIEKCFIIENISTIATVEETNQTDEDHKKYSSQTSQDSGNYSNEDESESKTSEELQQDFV

## Anifrolumab (antibody)
  抑制干扰素诱导的Daudi细胞增殖活性 (0.8ng/ml IFNα.2b, CellTiter-Glo): 31.7 ng/mL
  抑制干扰素诱导的HEK Blue IFNα/β细胞中STAT1/2磷酸化活性 (0.2ng/ml IFNα.2b, QUANTI-Blue OD630nm): 4.43 ng/mL
  抑制干扰素诱导的全血释放CXCL10/IP10活性 (8ng/ml IFNα.2b, 40ng/ml TNF-α, sandwich ELISA): 562 ng/mL
